The test concerns the target T1, human thrombin (Homo sapiens, UniProt P00734).
T1 construct: biotin (chemical label)
The experiment in a line: mRNA display selection against thrombin, selected sequences ranked by next-generation-sequencing frequency. The class given is binding. Particulars: for percentage (%): share of recovered sequences; for counts: top binders ranked by frequency. The procedure: 1 ml of the fusions from the previous step were added to 50 ul of M270 SA beads blocked with TBSTE+2% BSA at room temperature, and were incubated at room temperature for 30 min, and the supernatant was removed for binding with biotinylated thrombin.
8) Pre-Selected Fusions were Bound to 3 ul Biotinylated Human Thrombin at 1 U/ul at 4° C. for 1 h with Rotation
25 ul of M270 SA bead suspension was washed and blocked with TBSTE+2% BSA. The beads were then collected, mixed with 1 ml of each fusion/target complex, and incubated at room temperature for 30 min. The mixture was washed 3× in TBSTE, transferred to a new tube, and the cDNA was eluted with 50 ul of 0.1 N NaOH at room temperature for 3 min. Then 2.5 ul 3M NaAc, pH5.5. BioRad spin column was added and the volume was adjusted to 147 ul with H2O.
The following rounds of selections (3-5) were carried out following the above procedure with increased stringency (e.g. lower amounts of fusion molecule input and increased number of washing steps). After each round of selection, similar PCR amplification was done to prepare the DNA library for the next round of selection.
In summary, for example, one round of mRNA display consisted of the following steps: in vitro transcription, DNase digestion, conjugation with the puromycin oligo linker, in vitro translation/fusion formation, FLAG fusion molecule purification, reverse transcription, pre-selection or functional selection, and regeneration of the selected sequences. Briefly, the cDNA library was in vitro transcribed using T7 RNA polymerase, the mRNA templates with puromycin at the 3′ ends were generated by crosslinking with an oligonucleotide containing a psoralen residue and a puromycin residue at its 5′ and 3′ ends, respectively, and in vitro translation was performed using an NEB Purexpress Δ123 kit. The desired mRNA-protein fusions were then isolated from the translation reaction mixture using anti-FLAG magnetic beads. The fusion molecules were then converted into DNA/RNA hybrids through reverse transcription. This step removed secondary mRNA structures that might interfere with the subsequent selection.
To analyze the results of the selection, the DNA libraries were amplified after each round of selection using specially-designed sequencing primers that harbor Illumina next-generation-sequencing adapters. The libraries were mixed, further purified and next generation sequencing was performed. Peptide sequences recovered after each round of selection were called out according to their unique sequencing barcode and further comparison and analysis was done. Next-generation-sequencing provided the advantages of high throughput and a more complete overview of the selected species.
When thrombin was used as a target, a total of three rounds of selections were carried out. The selection pressure was increased by increasing the washing stringency (from three times to five times then to ten times for selection round 1, 2 and 3). Table 1 illustrates the top binders (ranked according to their frequency) after each round of selection. After selection round 3, more than 30% of the selected peptides contained the conserved “RDPGR” (SEQ ID NO:331) motif. The most abundant peptide “RDPGRLIFQS” (SEQ ID NO:332) was chosen for further analysis.

Where [1] appears, read: Round 3 of selection, ten washes.
Setting [2] is: Round 2 of selection, five washes.
The mark [3] stands for this setting: Round 1 of selection, three washes.

Take “QFHLEFAFTL (MGCTSVHQETKKYQSQFHLEFAFTLSYTYNYEHVDVWGCGSADYKDDDDKKK)”: under setting [1], the “percentage (%)” value came out at 0.020% and the counts is reported as 164.

As to “SLFVEYRITY (MGCTSVHQETKKYQSSLFVEYRITYSYTYNYEHVDVWGCGSADYKDDDDKKK)”, under setting [1], the “percentage (%)” value came out at 0.027% and the counts amounted to 224.

Consider “SIEFGLTFSF (MGCTSVHQETKKYQSSIEFGLTFSFSYTYNYEHVDVWGCGSADYKDDDDKKK)”, for which, under setting [1], the “percentage (%)” value turned out to be 0.023% and the counts is 195.

Take “RDPGRVIFEI (MGCTSVHQETKKYQSRDPGRVIFEISYTYNYEHVDVWGCGSADYKDDDDKKK)”: under setting [2], the “percentage (%)” value is on record as 0.0993% and the counts is listed as 1632. Further, under setting [1], the “percentage (%)” value stood at 10.038% and the counts stood at 83638.

Take “ETRIYIRFHT (MGCTSVHQETKKYQSETRIYIRFHTSYTYNYEHVDVWGCGSADYKDDDDKKK)”: under setting [2], the “percentage (%)” value was determined as 0.0052% and the counts is given as 86.

As to “SQSERATPRY (MGCTSVHQETKKYQSSQSERATPRYSYTYNYEHVDVWGCGSADYKDDDDKKK)”, under setting [3], the “percentage (%)” value is recorded as 1.5E−03% and the counts stood at 47.

“RDPYNVLISL (MGCTSVHQETKKYQSRDPYNVLISLSYTYNYEHVDVWGCGSADYKDDDDKKK)”: under setting [2], the “percentage (%)” value was found to be 0.0170% and the counts turned out to be 278. Besides, under setting [1], the “percentage (%)” value came to 0.084% and the counts is reported as 702.

As to “QMSFRFEVRV (MGCTSVHQETKKYQSQMSFRFEVRVSYTYNYEHVDVWGCGSADYKDDDDKKK)”, under setting [1], the “percentage (%)” value came out at 0.025% and the counts came to 211.

As to “RFHLFILGTS (MGCTSVHQETKKYQSRFHLFILGTSSYTYNYEHVDVWGCGSADYKDDDDKKK)”, under setting [3], the “percentage (%)” value stood at 1.4E−03% and the counts is 46.

AAVRLNSSS*: under setting [2], the “percentage (%)” value is 0.0046% and the counts worked out at 75.

In the case of “LQRAISSYSR (MGCTSVHQETKKYQSLQRAISSYSRSYTYNYEHVDVWGCGSADYKDDDDKKK)”, under setting [3], the “percentage (%)” value worked out at 1.2E−03% and the counts was determined as 38.

As to TQPKLTIEQR, under setting [3], the “percentage (%)” value was 1.3E−03% and the counts is 42.

As to “KCCTSMVIQL (MGCTSVHQETKKYQSKCCTSMVIQLSYTYNYEHVDVWGCGSADYKDDDDKKK)”, under setting [3], the “percentage (%)” value is recorded as 1.2E−03% and the counts was 38.

In the case of “RDPGRIVFNN (MGCTSVHQETKKYQSRDPGRIVFNNSYTYNYEHVDVWGCGSADYKDDDDKKK)”, under setting [2], the “percentage (%)” value is 0.0475% and the counts was found to be 781. Besides, under setting [1], the “percentage (%)” value came out at 1.144% and the counts amounted to 9534.

As to “HRLQIATVYT (MGCTSVHQETKKYQSHRLQIATVYTSYTYNYEHVDVWGCGSADYKDDDDKKK)”, the “percentage (%)” value by setting is: under setting [3], 1.3E−03%; under setting [2], 0.0109%. In addition, the counts by setting is: under setting [3], 42; under setting [2], 179.

“RSHGQFSFTF (MGCTSVHQETKKYQSRSHGQFSFTFSYTYNYEHVDVWGCGSADYKDDDDKKK)”: under setting [1], the “percentage (%)” value is recorded as 0.031% and the counts was determined as 258.

As for “LKQTDFRTPI (MGCTSVHQETKKYQSLKQTDFRTPISYTYNYEHVDVWGCGSADYKDDDDKKK)”, under setting [3], the “percentage (%)” value came to 1.2E−03% and the counts turned out to be 39.

For RTKIK*NGL*, under setting [2], the “percentage (%)” value was found to be 0.0052% and the counts was found to be 86.

For the substance VTSTYMFMYA, under setting [2], the “percentage (%)” value is 0.0051% and the counts came to 84. Further, under setting [1], the “percentage (%)” value was found to be 0.021% and the counts is given as 175.

For the substance “HCDTLELRPA (MGCTSVHQETKKYQSHCDTLELRPASYTYNYEHVDVWGCGSADYKDDDDKKK)”, under setting [3], the “percentage (%)” value is 1.2E−03% and the counts came to 40.

With “RDPGRLIFQS (MGCTSVHQETKKYQSRDPGRLIFQSSYTYNYEHVDVWGCGSADYKDDDDKKK)”, under setting [2], the “percentage (%)” value was determined as 0.1608% and the counts turned out to be 2642. Under setting [1], the “percentage (%)” value is recorded as 20.512% and the counts was found to be 170914.

In the case of “PPVLPQLVLL (MGCTSVHQETKKYQSPPVLPQLVLLSYTYNYEHVDVWGCGSADYKDDDDKKK)”, under setting [3], the “percentage (%)” value came out at 1.4E−03% and the counts came out at 44.

With “PLIHPRRGYA (MGCTSVHQETKKYQSPLIHPRRGYASYTYNYEHVDVWGCGSADYKDDDDKKK)”, under setting [3], the “percentage (%)” value was found to be 1.3E−03% and the counts turned out to be 43.

As to VVEFHFKWCI, under setting [2], the “percentage (%)” value is on record as 0.0046% and the counts amounted to 75.

The record behind these values is US20160312212A1, “COW ANTIBODY SCAFFOLD POLYPEPTIDE METHOD AND COMPOSITION” (Roche Sequencing Solutions, Inc., priority 2015, published 2016).
